Laboratory results from article doi:10.1101/2025.06.18.660434.

Biological target: GST-fusion RACK1 (UniProt P63244)
Experiment: pull-down

Kd: 32 nM
Substance: His-tagged PKAcα (from UniProt P17612 1-351) (enzyme)
